Reference: the supplement of paper PMC10567573

B1: SPSB1 (parent)
chain: DMRDPTYRPLKQELQGLDYCKPTR

Variants of: B1
Experiment: protein stability index of a GFP-peptide fusion (GPS, HEK-293T) (PSI 1-6); higher = more stable
Details: c terminus: a fixed tail appended
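Note: lentivirally expressed fusions sorted by FACS into six bins by GFP to DsRed ratio, PSI derived from sequencing read proportions per bin multiplied by bin number.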

Variant | protein stability index
DMRDPTYRPLKQELQGLDYCKPTQ [R24Q] | 3.18
DMRDPTYRPLKQELQGLDYCKPTP [R24P] | 4.29
DMRDPTYRPLKQELQGLDYCKPTD [R24D] | 4.59
DMRDPTYRPLKQELQGLDYCKPTY [R24Y] | 2.21
DMRDPTYRPLKQELQGLDYCKPTC [R24C] | 1.93
DMRDPTYRPLKQELQHLDYCKPTR [G16H] | 3.1
DMRDPTYRPLKQELQVLDYCKPTR [G16V] | 2.71
DMRDPTYRPLKQELQDLDYCKPTR [G16D] | 3.34
DMRDPTYRPLKQELQFLDYCKPTR [G16F] | 2.24
DMRDPTYRPLKQELNGLDYCKPTR [Q15N] | 3.52
DMRDPTYRPLKQELYGLDYCKPTR [Q15Y] | 3.4
DMRDPTYRPLKQELAGLDYCKPTR [Q15A] | 3.32
DMRDHTYRPLKQELQGLDYCKPTR [P5H] | 3.88
DMRDLTYRPLKQELQGLDYCKPTR [P5L] | 3.53
DMRDRTYRPLKQELQGLDYCKPTR [P5R] | 2.71
DMRDDTYRPLKQELQGLDYCKPTR [P5D] | 3.1
DMRDVTYRPLKQELQGLDYCKPTR [P5V] | 3.01
DMRDQTYRPLKQELQGLDYCKPTR [P5Q] | 3.55
DMRDPTYRPLKQELQGLDLCKPTR [Y19L] | 4.37
DMRDPTYRPLKQELQGLDDCKPTR [Y19D] | 4.37
DMRDPTYRPLKQELQGLDFCKPTR [Y19F] | 3.18
DMRDPTYRPLKQELQGLDYCGPTR [K21G] | 3.66
DMRDPTYRPLKQELQGLDYCAPTR [K21A] | 2.9
DMRDPTYRPLKQELQGLDYCKPDR [T23D] | 2.87

Variant | protein stability index
DMRDPTYRPLKQELQGLDYCKPFR [T23F] | 2.09
DMRDPTYRPLKQELQGLDYCKPHR [T23H] | 3.19
DMRDPTYRPLKQELQGLDYCKPRR [T23R] | 4.3
DMRDPTYRPLKQELQGLDYCKPWR [T23W] | 1.76
DMRDPTYRPNKQELQGLDYCKPTR [L10N] | 3.16
DMRDPTYRPHKQELQGLDYCKPTR [L10H] | 3.11
DMRDPTYRPCKQELQGLDYCKPTR [L10C] | 2.6
DMRDPTYRPLKQELQGLLYCKPTR [D18L] | 2.95
DMRDPTYRPLKQELQGLEYCKPTR [D18E] | 2.76
DMRDPTYRPLKQELQGLFYCKPTR [D18F] | 2.67
DMRDPTYRPLKQELQGLWYCKPTR [D18W] | 2.1
DMRDPTYRPLKPELQGLDYCKPTR [Q12P] | 3.04
DMRDPTYRPLKMELQGLDYCKPTR [Q12M] | 2.23
DMRDPTYRPLKAELQGLDYCKPTR [Q12A] | 3.12
DMRDPTYRPLKVELQGLDYCKPTR [Q12V] | 2.59
DMRDPTYRPLKQELQGQDYCKPTR [L17Q] | 4.51
DMRDPTYRPLKQELQGHDYCKPTR [L17H] | 4.39
DMRDPTYRPLKQELQGYDYCKPTR [L17Y] | 3.7
DMRDPTYRPLKQELQGPDYCKPTR [L17P] | 3.96
DMRDPTYRPLKQELQGVDYCKPTR [L17V] | 4
DMRDPTYRPLKQELQGWDYCKPTR [L17W] | 4.02
DMRDPTYRPLTQELQGLDYCKPTR [K11T] | 3.17
DMRDPTYRPLPQELQGLDYCKPTR [K11P] | 3.3
DMRDPTYRPLNQELQGLDYCKPTR [K11N] | 4.04

Variant | protein stability index
DMRDPGYRPLKQELQGLDYCKPTR [T6G] | 3.93
DMRDPSYRPLKQELQGLDYCKPTR [T6S] | 3.59
DMRDPVYRPLKQELQGLDYCKPTR [T6V] | 3.31
DMRDPNYRPLKQELQGLDYCKPTR [T6N] | 3.13
DMRDPAYRPLKQELQGLDYCKPTR [T6A] | 3.33
DMRDPTYMPLKQELQGLDYCKPTR [R8M] | 3.5
DMRDPTYAPLKQELQGLDYCKPTR [R8A] | 3.8
DMRDPTYWPLKQELQGLDYCKPTR [R8W] | 2.99
DMRDPTYTPLKQELQGLDYCKPTR [R8T] | 3.08
DMRDPTYRPLKQELQGLDYFKPTR [C20F] | 3.31
DMRDPTYRPLKQELQGLDYNKPTR [C20N] | 4.05
DMRDPTYRPLKQELQGLDYSKPTR [C20S] | 4.11
DMRDPTYRPLKQELQGLDYPKPTR [C20P] | 3.94
DMRDPTYRPLKQELQGLDYCKHTR [P22H] | 4.15
DMRDPTYRPLKQELQGLDYCKRTR [P22R] | 4.4
DMRDPTYRPLKQELQGLDYCKVTR [P22V] | 2.9
DMRDPTYRPLKQELQGLDYCKYTR [P22Y] | 3.13
DMRDPTYRPLKQELQGLDYCKETR [P22E] | 4.79
DMRDPTYRSLKQELQGLDYCKPTR [P9S] | 3.35
DMRDPTYRPLKQCLQGLDYCKPTR [E13C] | 2.91
DMRDPTYRPLKQILQGLDYCKPTR [E13I] | 2.62
DMRDPTYRPLKQPLQGLDYCKPTR [E13P] | 3.68
DMRDPTYRPLKQRLQGLDYCKPTR [E13R] | 2.98
DMRDPTYRPLKQKLQGLDYCKPTR [E13K] | 2.83

Variant | protein stability index
DMRDPTYRPLKQEIQGLDYCKPTR [L14I] | 3.35
DMRDPTYRPLKQENQGLDYCKPTR [L14N] | 3.95
DMRDPTYRPLKQEYQGLDYCKPTR [L14Y] | 3.49
DMRDPTYRPLKQEAQGLDYCKPTR [L14A] | 4.04
DMRDPTYRPLKQEFQGLDYCKPTR [L14F] | 3.43
DMRDPTYRPLKQERQGLDYCKPTR [L14R] | 3.42
DMRTPTYRPLKQELQGLDYCKPTR [D4T] | 2.8
DMRPPTYRPLKQELQGLDYCKPTR [D4P] | 2.72
DMRQPTYRPLKQELQGLDYCKPTR [D4Q] | 3.6
DMREPTYRPLKQELQGLDYCKPTR [D4E] | 3.24
MMRDPTYRPLKQELQGLDYCKPTR [D1M] | 3.39
KMRDPTYRPLKQELQGLDYCKPTR [D1K] | 3.06
SMRDPTYRPLKQELQGLDYCKPTR [D1S] | 3.02
DTRDPTYRPLKQELQGLDYCKPTR [M2T] | 2.64
DLRDPTYRPLKQELQGLDYCKPTR [M2L] | 3.01
DYRDPTYRPLKQELQGLDYCKPTR [M2Y] | 2.72
DVRDPTYRPLKQELQGLDYCKPTR [M2V] | 3.02
DMYDPTYRPLKQELQGLDYCKPTR [R3Y] | 2.8
DMPDPTYRPLKQELQGLDYCKPTR [R3P] | 3.36
DMEDPTYRPLKQELQGLDYCKPTR [R3E] | 3.84
DMRDPTSRPLKQELQGLDYCKPTR [Y7S] | 2.93
DMRDPTMRPLKQELQGLDYCKPTR [Y7M] | 2.64
